One data set has as its system biotinyl-Phe-oxazolone. Put plainly: self-aminoacylation, catalytic enhancement (BFO) (fold over background); higher = more active; k-Seq, kA / k0A0; sequences stand for … in GGGAAUGGAUCCACAUCUACGAAUUC…UUCACUGCAGACUUGACGAAGCUG
In outline: (§1)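 Mutagenized RNA pools (0.43 μM; 21-nt variable region) were treated with 2–1250 μM of each biotinyl-aminoacyl-oxazolone. Conditions were 50 μL HEPES/NaCl/KCl/MgCl2/CaCl2 buffer, 5% acetonitrile, pH 6.9–7.0, room temperature, 90 minutes. Catalytic enhancement, the median kA relative to the uncatalyzed rate, was derived from streptavidin capture, qPCR and Illumina sequencing.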

In another data set the test system is biotinyl-Trp-oxazolone. Put plainly: self-aminoacylation, catalytic enhancement (BWO) (fold over background); higher = more active; k-Seq, kA / k0A0; sequences stand for … in GGGAAUGGAUCCACAUCUACGAAUUC…UUCACUGCAGACUUGACGAAGCUG
In outline: as §1

The subject of the next data set is biotinyl-Val-oxazolone. Put plainly: self-aminoacylation, catalytic enhancement (BVO) (fold over background); higher = more active; k-Seq, kA / k0A0; sequences stand for … in GGGAAUGGAUCCACAUCUACGAAUUC…UUCACUGCAGACUUGACGAAGCUG
In outline: as §1

The next data set relates to biotinyl-Ile-oxazolone. Put plainly: self-aminoacylation, catalytic enhancement (BIO) (fold over background); higher = more active; k-Seq, kA / k0A0; sequences stand for … in GGGAAUGGAUCCACAUCUACGAAUUC…UUCACUGCAGACUUGACGAAGCUG
In outline:
as §1

In a further data set the test system is biotinyl-Leu-oxazolone. Put plainly: self-aminoacylation, catalytic enhancement (BLO) (fold over background); higher = more active; k-Seq, kA / k0A0; sequences stand for … in GGGAAUGGAUCCACAUCUACGAAUUC…UUCACUGCAGACUUGACGAAGCUG
In short, it runs like this: as §1

The test system of a further data set is biotinyl-Met-oxazolone. In words: self-aminoacylation, catalytic enhancement (BMO) (fold over background); higher = more active; k-Seq, kA / k0A0; sequences stand for … in GGGAAUGGAUCCACAUCUACGAAUUC…UUCACUGCAGACUUGACGAAGCUG
In outline:
as §1

Variants at the floor of the assay were thinned out.

For the sequence “CCACGCUUCAAGCAAUCGGAC [Fam1B.1 aminoacylation ribozyme variant]”, the self-aminoacylation worked out at 1.87 in the data set with biotinyl-Phe-oxazolone; 1.24 in the data set on biotinyl-Trp-oxazolone; 0.666 in the data set with biotinyl-Val-oxazolone; 0.794 in the data set on biotinyl-Ile-oxazolone; 0.696 in the data set with biotinyl-Leu-oxazolone; 0.64 with biotinyl-Met-oxazolone.

On to “CUAUUUCAAACAAUCGGACUG [Fam1A.1 aminoacylation ribozyme variant]”, for which the self-aminoacylation in the data set on biotinyl-Phe-oxazolone came to 1.93; in the data set on biotinyl-Trp-oxazolone it was 1.12; in the data set on biotinyl-Val-oxazolone, 0.733; in the data set on biotinyl-Ile-oxazolone, 0.976; in the data set with biotinyl-Leu-oxazolone, 0.803; in the data set on biotinyl-Met-oxazolone, 0.82.

As for “CUACUAGAAACAAUCGGUCUG [Fam1A.1 aminoacylation ribozyme variant]”, the self-aminoacylation is 0.401 in the data set on biotinyl-Phe-oxazolone; 0.625 in the data set with biotinyl-Trp-oxazolone; 0.639 with biotinyl-Val-oxazolone; 0.673 in the data set with biotinyl-Ile-oxazolone; 0.619 in the data set on biotinyl-Leu-oxazolone; 0.687 in the data set on biotinyl-Met-oxazolone.

“AUUCAAUUAGGUCAUCGGGUG [Fam2.2 aminoacylation ribozyme variant]”: the self-aminoacylation in the data set with biotinyl-Phe-oxazolone is 42.1; in the data set with biotinyl-Trp-oxazolone, 5.33; with biotinyl-Val-oxazolone, 3.44; in the data set on biotinyl-Ile-oxazolone it was 3.56; in the data set on biotinyl-Leu-oxazolone, 7.25; in the data set with biotinyl-Met-oxazolone it was 6.

As to “AUUACCGUGGUCAUCUAGUGA [Fam2.1 aminoacylation ribozyme variant]”, the self-aminoacylation is 31.2 in the data set with biotinyl-Phe-oxazolone; 7.82 with biotinyl-Trp-oxazolone; 3.82 in the data set with biotinyl-Val-oxazolone; 3.29 in the data set on biotinyl-Ile-oxazolone; 6.26 in the data set with biotinyl-Leu-oxazolone; 6.98 in the data set on biotinyl-Met-oxazolone.

Regarding “AUUACCCUGGUCACCGAGUGU [Fam2.1 aminoacylation ribozyme variant]”, the self-aminoacylation in the data set on biotinyl-Phe-oxazolone was 16.6; in the data set with biotinyl-Trp-oxazolone it was 5.42; with biotinyl-Val-oxazolone, 2.55; with biotinyl-Ile-oxazolone it was 2.65; with biotinyl-Leu-oxazolone, 5.37; in the data set on biotinyl-Met-oxazolone, 4.97.

Regarding “AUUACCCUGGGCACCGAGUGA [Fam2.1 aminoacylation ribozyme variant]”, the self-aminoacylation in the data set on biotinyl-Phe-oxazolone came to 37.9; in the data set on biotinyl-Trp-oxazolone, 5.46; with biotinyl-Val-oxazolone, 2.84; with biotinyl-Ile-oxazolone, 3.37; in the data set with biotinyl-Leu-oxazolone, 6.68; in the data set with biotinyl-Met-oxazolone, 6.11.

With “CUACUUCAAACAAACGGCCUG [Fam1A.1 aminoacylation ribozyme variant]”, the self-aminoacylation with biotinyl-Phe-oxazolone stood at 0.719; in the data set with biotinyl-Trp-oxazolone it was 0.967; in the data set on biotinyl-Val-oxazolone, 1.13; with biotinyl-Ile-oxazolone it was 1.38; in the data set with biotinyl-Leu-oxazolone it was 1.18; in the data set on biotinyl-Met-oxazolone it was 1.01.

With “AUUCACCUAGUUCAUGGGGUG [Fam2.2 aminoacylation ribozyme variant]”, the self-aminoacylation in the data set on biotinyl-Phe-oxazolone is 66; with biotinyl-Trp-oxazolone, 7.05; with biotinyl-Val-oxazolone, 4.43; with biotinyl-Ile-oxazolone it was 4.31; with biotinyl-Leu-oxazolone, 10.6; in the data set with biotinyl-Met-oxazolone, 8.55.

Regarding “AUUACCCUGGGCAUCGAAUGA [Fam2.1 aminoacylation ribozyme variant]”, the self-aminoacylation was 1.14 with biotinyl-Phe-oxazolone; 2.01 in the data set on biotinyl-Trp-oxazolone; 0.934 in the data set on biotinyl-Val-oxazolone; 0.945 in the data set with biotinyl-Ile-oxazolone; 0.912 in the data set with biotinyl-Leu-oxazolone; 0.647 in the data set with biotinyl-Met-oxazolone.

Turning to “AUAACCCUCGUCAUCGAGUGA [Fam2.1 aminoacylation ribozyme variant]”, the self-aminoacylation with biotinyl-Phe-oxazolone amounted to 10.7; in the data set on biotinyl-Trp-oxazolone it was 3.79; with biotinyl-Val-oxazolone, 2.13; with biotinyl-Ile-oxazolone, 1.89; in the data set with biotinyl-Leu-oxazolone, 3.59; with biotinyl-Met-oxazolone, 3.43.

“AAGUUUGCUAACUGUCGCAAG [Fam3.1 aminoacylation ribozyme variant]”: the self-aminoacylation is 0.773 with biotinyl-Phe-oxazolone; 0.984 with biotinyl-Trp-oxazolone; 0.79 with biotinyl-Val-oxazolone; 0.784 in the data set on biotinyl-Ile-oxazolone; 1 in the data set with biotinyl-Leu-oxazolone; 1.01 in the data set on biotinyl-Met-oxazolone.

On to “AGUCACCUAGGGCAUCGGGUG [Fam2.2 aminoacylation ribozyme variant]”, for which the self-aminoacylation with biotinyl-Phe-oxazolone amounted to 34.4; in the data set with biotinyl-Trp-oxazolone, 6.69; with biotinyl-Val-oxazolone, 3.45; with biotinyl-Ile-oxazolone, 4.43; with biotinyl-Leu-oxazolone, 4.67; in the data set with biotinyl-Met-oxazolone, 3.71.

Regarding “AUUACCCUGGUCAACGAGGGA [Fam2.1 aminoacylation ribozyme variant]”, the self-aminoacylation in the data set on biotinyl-Phe-oxazolone turned out to be 1.26; in the data set on biotinyl-Trp-oxazolone, 2.56; in the data set with biotinyl-Val-oxazolone, 1.56; with biotinyl-Ile-oxazolone, 1.49; in the data set on biotinyl-Leu-oxazolone, 1.85; in the data set with biotinyl-Met-oxazolone, 1.49.

Regarding “AUUCACCUAGGUCUUCGGGUG [Fam2.2 aminoacylation ribozyme variant]”, the self-aminoacylation in the data set on biotinyl-Phe-oxazolone was 27.4; in the data set on biotinyl-Trp-oxazolone, 4.38; in the data set with biotinyl-Val-oxazolone, 3.71; in the data set with biotinyl-Ile-oxazolone it was 3.33; in the data set with biotinyl-Leu-oxazolone it was 5.48; in the data set on biotinyl-Met-oxazolone it was 4.46.

Regarding “AAGGUGGCUAAUAGUCGCAAG [Fam3.1 aminoacylation ribozyme variant]”, the self-aminoacylation came out at 1.82 with biotinyl-Phe-oxazolone; 1.95 with biotinyl-Trp-oxazolone; 1.41 in the data set with biotinyl-Val-oxazolone; 1.63 in the data set with biotinyl-Ile-oxazolone; 1.74 in the data set with biotinyl-Leu-oxazolone; 1.65 in the data set on biotinyl-Met-oxazolone.

Regarding “AUUCCCCUAGGUCAUGGGGUG [Fam2.2 aminoacylation ribozyme variant]”, the self-aminoacylation was found to be 167 in the data set on biotinyl-Phe-oxazolone; 15.8 with biotinyl-Trp-oxazolone; 11.1 in the data set with biotinyl-Val-oxazolone; 11.3 in the data set with biotinyl-Ile-oxazolone; 24.7 with biotinyl-Leu-oxazolone; 19 in the data set with biotinyl-Met-oxazolone.

Turning to “AUUCACCUUGGACAUCGGGUG [Fam2.2 aminoacylation ribozyme variant]”, the self-aminoacylation with biotinyl-Phe-oxazolone turned out to be 17.1; with biotinyl-Trp-oxazolone it was 2.97; with biotinyl-Val-oxazolone, 3.24; with biotinyl-Ile-oxazolone it was 2.51; with biotinyl-Leu-oxazolone, 3.37; with biotinyl-Met-oxazolone, 3.51.

With “CUACUUCAAAGAAUCAGUCUG [Fam1A.1 aminoacylation ribozyme variant]”, the self-aminoacylation in the data set on biotinyl-Phe-oxazolone was determined as 3.34; with biotinyl-Trp-oxazolone, 1.7; in the data set with biotinyl-Val-oxazolone, 0.803; in the data set on biotinyl-Ile-oxazolone it was 0.759; in the data set with biotinyl-Leu-oxazolone it was 0.68; in the data set on biotinyl-Met-oxazolone, 0.677.

For “CUACUUCAAAGAAUGGGUCUG [Fam1A.1 aminoacylation ribozyme variant]”, the self-aminoacylation with biotinyl-Phe-oxazolone was 0.335; in the data set on biotinyl-Trp-oxazolone, 0.459; in the data set on biotinyl-Val-oxazolone, 0.665; with biotinyl-Ile-oxazolone, 0.79; with biotinyl-Leu-oxazolone, 0.74; in the data set on biotinyl-Met-oxazolone it was 0.708.

As for “AUUAACUUAGGUCAUCGGGUG [Fam2.2 aminoacylation ribozyme variant]”, the self-aminoacylation in the data set on biotinyl-Phe-oxazolone was determined as 28.7; in the data set on biotinyl-Trp-oxazolone, 4.85; with biotinyl-Val-oxazolone it was 2.59; with biotinyl-Ile-oxazolone it was 2.79; in the data set on biotinyl-Leu-oxazolone it was 4.73; in the data set on biotinyl-Met-oxazolone it was 4.59.

Turning to “CUAAUUCAAACAAUUGGUCUG [Fam1A.1 aminoacylation ribozyme variant]”, the self-aminoacylation amounted to 0.608 in the data set with biotinyl-Phe-oxazolone; 0.572 in the data set with biotinyl-Trp-oxazolone; 0.687 with biotinyl-Val-oxazolone; 0.839 in the data set on biotinyl-Ile-oxazolone; 0.744 with biotinyl-Leu-oxazolone; 0.776 in the data set with biotinyl-Met-oxazolone.

Take “AUUACCCGGGUCAUCCAGUGA [Fam2.1 aminoacylation ribozyme variant]”: the self-aminoacylation with biotinyl-Phe-oxazolone was determined as 28.6; in the data set with biotinyl-Trp-oxazolone, 5.93; in the data set on biotinyl-Val-oxazolone, 3.05; with biotinyl-Ile-oxazolone, 3.39; in the data set on biotinyl-Leu-oxazolone, 4.86; in the data set with biotinyl-Met-oxazolone it was 4.59.

Source of the values: the supplement of paper PMC9233669.
